Measured values from the supplement of paper PMC10065799, “High-throughput profiling of sequence recognition by tyrosine kinases and SH2 domains using bacterial peptide display” (eLife, 2023).

Key:
SHP2-C SH2 = assay: SH2 binding enrichment of the phosphorylated peptide, bacterial display (enrichment ratio); higher = better substrate or ligand; peptides without Tyr show the background
Grb2 SH2 = Grb2 SH2 (UniProt P62993); assay: as above
c-Src SH2 = assay: as above
Jak2 = Jak2 (UniProt O60674); assay: phosphorylation enrichment, bacterial display (enrichment ratio); higher = better substrate or ligand; peptides without Tyr show the background
Fyn = Fyn (UniProt P06241); assay: as above
Hck = Hck (UniProt P08631); assay: as above
AncSZ = assay: as above
EPHB2 = EPHB2 (UniProt P29323); assay: as above
Fes = Fes (UniProt P07332); assay: as above
FGFR1 = FGFR1 (UniProt P11362); assay: as above
c-Src = assay: as above
FGFR3 = FGFR3 (UniProt P22607); assay: as above
Fer (mouse) = assay: as above
EPHB1 = EPHB1 (UniProt P54762); assay: as above
MERTK = MERTK (UniProt Q12866); assay: as above
c-Abl (mouse) = assay: as above
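For SH2 binding enrichment of the phosphorylated peptide, bacterial display in this document: peptide library displayed on the E. coli surface as eCPX fusions, selected cells deep-sequenced, score is each peptide's frequency after selection divided by its frequency in the input.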
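For phosphorylation enrichment, bacterial display in this document: 11-residue human phosphosite peptides and single-mutation variants displayed on the E. coli surface, counted by deep sequencing, each peptide's frequency after selection divided by its frequency in the unselected input library; frequency after pTyr selection over input frequency; kinase dosed for 20-30% of maximal phosphorylation in three min.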

Hck, sequence (P08631 whole entry, looked up): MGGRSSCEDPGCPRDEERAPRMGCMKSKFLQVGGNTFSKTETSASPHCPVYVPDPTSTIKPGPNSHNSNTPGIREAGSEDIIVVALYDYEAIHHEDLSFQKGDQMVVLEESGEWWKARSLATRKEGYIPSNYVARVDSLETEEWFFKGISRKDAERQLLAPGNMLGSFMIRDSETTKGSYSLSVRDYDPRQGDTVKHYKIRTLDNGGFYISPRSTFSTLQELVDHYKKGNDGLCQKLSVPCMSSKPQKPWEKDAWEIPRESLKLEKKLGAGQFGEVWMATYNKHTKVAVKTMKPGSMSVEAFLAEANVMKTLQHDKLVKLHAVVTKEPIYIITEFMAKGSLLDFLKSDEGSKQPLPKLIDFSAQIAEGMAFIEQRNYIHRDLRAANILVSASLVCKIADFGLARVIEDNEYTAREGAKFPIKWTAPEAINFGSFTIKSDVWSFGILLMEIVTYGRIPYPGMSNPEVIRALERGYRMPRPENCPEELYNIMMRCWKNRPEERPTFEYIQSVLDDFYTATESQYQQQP
EPHB1, sequence (P54762 whole entry, looked up): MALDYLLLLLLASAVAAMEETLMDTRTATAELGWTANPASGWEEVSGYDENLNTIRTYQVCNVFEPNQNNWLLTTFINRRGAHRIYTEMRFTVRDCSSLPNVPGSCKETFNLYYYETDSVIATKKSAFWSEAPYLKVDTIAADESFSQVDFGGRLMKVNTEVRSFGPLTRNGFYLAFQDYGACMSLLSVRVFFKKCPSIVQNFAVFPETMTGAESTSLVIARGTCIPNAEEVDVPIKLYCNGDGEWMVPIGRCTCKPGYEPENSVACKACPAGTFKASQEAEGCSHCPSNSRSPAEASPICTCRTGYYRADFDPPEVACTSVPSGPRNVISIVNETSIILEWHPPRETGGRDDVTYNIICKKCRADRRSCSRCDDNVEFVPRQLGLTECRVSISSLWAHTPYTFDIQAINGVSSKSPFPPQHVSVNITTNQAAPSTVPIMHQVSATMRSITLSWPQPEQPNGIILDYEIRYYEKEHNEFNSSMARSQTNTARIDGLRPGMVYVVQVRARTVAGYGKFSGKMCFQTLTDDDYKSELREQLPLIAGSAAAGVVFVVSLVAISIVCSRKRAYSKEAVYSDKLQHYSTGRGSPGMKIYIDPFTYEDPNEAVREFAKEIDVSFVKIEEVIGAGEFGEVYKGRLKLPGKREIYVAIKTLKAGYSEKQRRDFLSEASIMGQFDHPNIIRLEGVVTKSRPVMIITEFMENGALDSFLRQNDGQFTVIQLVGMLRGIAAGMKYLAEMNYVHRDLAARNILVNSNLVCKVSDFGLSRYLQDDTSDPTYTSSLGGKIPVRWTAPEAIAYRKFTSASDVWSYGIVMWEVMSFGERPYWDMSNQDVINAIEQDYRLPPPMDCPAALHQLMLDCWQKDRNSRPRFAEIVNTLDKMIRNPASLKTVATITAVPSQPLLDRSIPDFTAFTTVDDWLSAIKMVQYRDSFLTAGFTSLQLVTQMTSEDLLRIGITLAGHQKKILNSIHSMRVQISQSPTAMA
FGFR3, sequence (P22607 whole entry, looked up): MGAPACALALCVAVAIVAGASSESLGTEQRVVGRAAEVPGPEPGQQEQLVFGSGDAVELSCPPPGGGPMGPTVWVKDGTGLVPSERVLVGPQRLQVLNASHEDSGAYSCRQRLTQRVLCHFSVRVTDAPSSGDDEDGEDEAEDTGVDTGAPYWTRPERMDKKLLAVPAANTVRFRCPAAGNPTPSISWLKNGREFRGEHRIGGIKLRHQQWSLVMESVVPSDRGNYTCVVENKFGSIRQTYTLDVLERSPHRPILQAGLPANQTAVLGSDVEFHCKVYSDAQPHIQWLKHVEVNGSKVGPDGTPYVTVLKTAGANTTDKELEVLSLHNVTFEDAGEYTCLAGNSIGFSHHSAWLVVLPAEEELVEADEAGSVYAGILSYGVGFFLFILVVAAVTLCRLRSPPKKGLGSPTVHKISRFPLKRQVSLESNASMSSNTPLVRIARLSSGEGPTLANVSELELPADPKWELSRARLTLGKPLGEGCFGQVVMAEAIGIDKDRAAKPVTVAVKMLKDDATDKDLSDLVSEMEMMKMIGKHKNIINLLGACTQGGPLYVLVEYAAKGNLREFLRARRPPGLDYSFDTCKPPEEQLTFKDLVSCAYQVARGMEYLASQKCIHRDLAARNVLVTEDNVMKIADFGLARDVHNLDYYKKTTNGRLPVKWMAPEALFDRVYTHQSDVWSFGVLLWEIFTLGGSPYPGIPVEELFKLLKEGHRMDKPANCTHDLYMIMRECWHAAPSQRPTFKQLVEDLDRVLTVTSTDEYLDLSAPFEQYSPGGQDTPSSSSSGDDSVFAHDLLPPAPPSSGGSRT
FGFR1, sequence (P11362 whole entry, looked up): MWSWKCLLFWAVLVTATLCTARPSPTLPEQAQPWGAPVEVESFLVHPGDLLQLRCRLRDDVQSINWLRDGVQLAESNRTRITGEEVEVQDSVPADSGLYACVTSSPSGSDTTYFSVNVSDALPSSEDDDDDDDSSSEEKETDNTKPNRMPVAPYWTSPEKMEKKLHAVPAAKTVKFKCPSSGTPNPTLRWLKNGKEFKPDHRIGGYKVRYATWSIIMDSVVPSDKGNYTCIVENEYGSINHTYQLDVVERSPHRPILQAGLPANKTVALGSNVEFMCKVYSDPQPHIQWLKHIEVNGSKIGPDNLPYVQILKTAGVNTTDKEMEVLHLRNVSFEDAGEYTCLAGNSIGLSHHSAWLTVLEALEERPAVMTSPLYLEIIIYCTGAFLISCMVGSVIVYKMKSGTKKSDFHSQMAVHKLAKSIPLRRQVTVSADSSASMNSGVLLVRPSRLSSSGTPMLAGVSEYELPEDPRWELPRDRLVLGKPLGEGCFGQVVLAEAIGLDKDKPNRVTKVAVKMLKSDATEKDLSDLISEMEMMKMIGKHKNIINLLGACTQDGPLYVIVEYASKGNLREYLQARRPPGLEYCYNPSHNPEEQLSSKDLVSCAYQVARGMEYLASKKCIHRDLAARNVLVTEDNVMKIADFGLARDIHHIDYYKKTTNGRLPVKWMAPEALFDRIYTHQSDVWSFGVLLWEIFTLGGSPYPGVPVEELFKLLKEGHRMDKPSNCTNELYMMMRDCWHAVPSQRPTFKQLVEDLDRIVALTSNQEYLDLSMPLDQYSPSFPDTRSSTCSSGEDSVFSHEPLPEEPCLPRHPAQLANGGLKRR
MERTK, sequence (Q12866 whole entry, looked up): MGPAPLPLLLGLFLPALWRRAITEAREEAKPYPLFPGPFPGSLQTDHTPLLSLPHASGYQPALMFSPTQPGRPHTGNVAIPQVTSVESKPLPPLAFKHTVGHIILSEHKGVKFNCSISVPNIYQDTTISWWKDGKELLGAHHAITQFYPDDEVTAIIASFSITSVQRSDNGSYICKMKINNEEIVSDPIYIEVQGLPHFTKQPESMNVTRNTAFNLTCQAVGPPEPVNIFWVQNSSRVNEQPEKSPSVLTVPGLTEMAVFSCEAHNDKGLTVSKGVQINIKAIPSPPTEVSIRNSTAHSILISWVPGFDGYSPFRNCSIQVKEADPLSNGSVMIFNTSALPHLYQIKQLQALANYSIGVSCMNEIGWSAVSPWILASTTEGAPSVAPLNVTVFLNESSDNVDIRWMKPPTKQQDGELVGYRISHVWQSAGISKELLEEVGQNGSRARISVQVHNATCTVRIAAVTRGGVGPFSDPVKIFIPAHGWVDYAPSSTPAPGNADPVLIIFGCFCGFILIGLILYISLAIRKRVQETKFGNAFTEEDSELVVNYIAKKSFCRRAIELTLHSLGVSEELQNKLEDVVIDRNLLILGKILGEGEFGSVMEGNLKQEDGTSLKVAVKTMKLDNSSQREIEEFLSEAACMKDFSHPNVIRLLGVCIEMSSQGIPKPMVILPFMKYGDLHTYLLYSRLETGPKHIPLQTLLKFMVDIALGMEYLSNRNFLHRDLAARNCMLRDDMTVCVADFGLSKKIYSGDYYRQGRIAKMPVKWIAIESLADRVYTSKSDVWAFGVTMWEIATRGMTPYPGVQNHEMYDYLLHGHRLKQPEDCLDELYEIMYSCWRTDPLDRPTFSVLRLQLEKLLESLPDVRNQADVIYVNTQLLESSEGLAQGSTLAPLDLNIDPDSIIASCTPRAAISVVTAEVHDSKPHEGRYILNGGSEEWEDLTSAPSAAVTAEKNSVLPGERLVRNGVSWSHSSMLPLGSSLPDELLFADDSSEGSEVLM
Fes, sequence (P07332 whole entry, looked up): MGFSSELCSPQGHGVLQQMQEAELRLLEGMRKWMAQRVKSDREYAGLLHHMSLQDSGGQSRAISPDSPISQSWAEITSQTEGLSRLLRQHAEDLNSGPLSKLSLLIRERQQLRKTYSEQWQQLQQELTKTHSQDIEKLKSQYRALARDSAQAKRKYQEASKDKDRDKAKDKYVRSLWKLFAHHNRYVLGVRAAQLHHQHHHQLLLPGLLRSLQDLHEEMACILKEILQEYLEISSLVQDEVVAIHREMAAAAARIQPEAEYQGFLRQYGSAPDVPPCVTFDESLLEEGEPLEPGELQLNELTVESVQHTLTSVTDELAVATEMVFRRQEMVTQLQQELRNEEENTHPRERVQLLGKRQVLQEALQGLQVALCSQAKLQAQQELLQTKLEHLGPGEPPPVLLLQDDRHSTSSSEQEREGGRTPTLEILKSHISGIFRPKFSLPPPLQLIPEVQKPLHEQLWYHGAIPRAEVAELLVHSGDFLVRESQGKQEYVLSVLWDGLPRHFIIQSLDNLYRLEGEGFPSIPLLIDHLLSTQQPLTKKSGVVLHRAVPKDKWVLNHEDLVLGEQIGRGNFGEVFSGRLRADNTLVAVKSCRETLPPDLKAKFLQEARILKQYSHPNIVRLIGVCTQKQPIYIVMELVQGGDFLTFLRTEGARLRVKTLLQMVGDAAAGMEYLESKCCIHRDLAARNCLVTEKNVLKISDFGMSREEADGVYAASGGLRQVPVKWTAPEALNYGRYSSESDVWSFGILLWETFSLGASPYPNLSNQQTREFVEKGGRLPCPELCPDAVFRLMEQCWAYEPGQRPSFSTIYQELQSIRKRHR

Row | Sequence | SH2 binding enrichment (SHP2-C SH2) | SH2 binding enrichment (Grb2 SH2) | SH2 binding enrichment (c-Src SH2) | phosphorylation enrichment (Jak2) | phosphorylation enrichment (Fyn) | phosphorylation enrichment (Hck) | phosphorylation enrichment (AncSZ) | phosphorylation enrichment (EPHB2) | phosphorylation enrichment (Fes) | phosphorylation enrichment (FGFR1) | phosphorylation enrichment (c-Src) | phosphorylation enrichment (FGFR3) | phosphorylation enrichment (Fer (mouse)) | phosphorylation enrichment (EPHB1) | phosphorylation enrichment (MERTK) | phosphorylation enrichment (c-Abl (mouse))
1 | KNAEKYAEEDR [HSPA9_Y568] | 0.819 | 0.992 | 0.624 | 0.822 | 0.528 | 0.571 | 1.08 | 0.506 | 1.1 | 0.47 | 0.411 | 0.709 | 0.499 | 0.506 | 0.444 | 0.674
2 | RRGFLYDSDEE [MCM2_Y137_L135F] | 0.564 | 0.802 | 0.455 | 0.812 | 0.512 | 0.764 | 0.629 | 0.686 | 0.761 | 0.429 | 0.625 | 0.458 | 0.501 | 0.397 | 0.589 | 0.679
3 | TLNFFYQQVKS [PTK2_Y148] | 0.768 | 0.802 | 0.885 | 1 | 0.516 | 0.471 | 1.15 | 0.658 | 1.15 | 0.471 | 0.361 | 0.849 | 0.575 | 0.68 | 0.366 | 0.606
4 | SVTRTYSPALN [TP53_Y126_C124R] | 0.579 | 0.961 | 0.424 | 0.429 | 0.384 | 0.345 | 0.445 | 0.378 | 0.522 | 0.394 | 0.399 | 0.418 | 0.485 | 0.313 | 0.313 | 0.427
5 | QLHEHCKIHKE [NSMAF_Y626_Y626C] | 1.15 | 1.37 | 0.945 | 0.666 | 0.633 | 0.649 | 0.682 | 0.422 | 0.612 | 0.745 | 0.724 | 0.651 | 0.522 | 0.343 | 0.629 | 0.728
6 | WFPFTYVEEDE [VAV3_Y842_S840Y_YF] | 1.48 | 1.48 | 1.23 | 1.1 | 0.516 | 0.437 | 1.19 | 0.473 | 1.11 | 0.52 | 0.521 | 0.692 | 0.547 | 0.702 | 0.453 | 0.655
7 | ACQSLYGGFVE [MVD_Y164_R161Q] | 0.735 | 0.902 | 0.628 | 0.775 | 11.1 | 8.54 | 0.949 | 1.53 | 0.945 | 0.567 | 7.59 | 0.665 | 0.744 | 0.719 | 1.14 | 0.7
8 | MSSLYYANTLF [HOXB7_Y6] | 0.739 | 2.87 | 1.24 | 3.08 | 4.32 | 5.94 | 1.32 | 12.8 | 1.01 | 6.15 | 4.4 | 5.82 | 5.33 | 10.7 | 10.8 | 8.46
9 | ALAHKYRGGGG [HBD_Y146_H147R] | 0.598 | 0.804 | 0.535 | 0.351 | 0.335 | 0.333 | 0.404 | 0.362 | 0.495 | 0.422 | 0.432 | 0.364 | 0.315 | 0.311 | 0.309 | 0.471
10 | MGRVKYGAYIN [GLB1_Y485_N484K] | 1.51 | 2.27 | 1.38 | 0.447 | 0.472 | 0.401 | 0.506 | 0.408 | 0.569 | 0.374 | 0.378 | 0.47 | 0.416 | 0.282 | 0.358 | 0.461
11 | KLFYIYTPGTT [SLC27A4_Y245_S247P] | 1.15 | 0.798 | 0.471 | 1.43 | 0.404 | 0.527 | 1.25 | 0.584 | 1.17 | 0.753 | 0.58 | 0.899 | 0.594 | 0.666 | 1.66 | 0.784
12 | LPPGTYPSDFA [UNC5B_Y511] | 0.714 | 0.84 | 0.369 | 0.791 | 0.451 | 0.461 | 0.744 | 0.412 | 0.96 | 0.543 | 0.422 | 0.595 | 0.5 | 0.482 | 0.424 | 0.565
13 | QRHYVYYYSYL [PTEN_Y176_R173H] | 1.12 | 0.688 | 0.698 | 5.22 | 3.5 | 3.31 | 1.79 | 2.16 | 1.91 | 7.4 | 5.11 | 6.74 | 1.29 | 3.51 | 8.74 | 1.84
14 | EVASVYQSFQP [MAVS_Y92_YF] | 0.661 | 0.961 | 0.507 | 1.06 | 13.6 | 11 | 1.22 | 0.846 | 1.2 | 0.604 | 8.85 | 0.991 | 5.55 | 0.785 | 2.03 | 2.19
15 | AFGNLYGSRKQ [YIPF7_Y59_YF] | 0.376 | 0.788 | 0.35 | 0.505 | 0.718 | 2.93 | 0.526 | 0.531 | 0.55 | 0.397 | 1.09 | 0.398 | 0.409 | 0.357 | 0.519 | 0.657
16 | LDPDSYNMFEN [FOXC1_Y159] | 0.504 | 0.667 | 0.575 | 1.44 | 0.531 | 0.465 | 1.38 | 0.865 | 1.14 | 0.675 | 0.579 | 0.855 | 0.527 | 0.637 | 0.635 | 0.74
